{"source": "patent US20090098103A1", "test_in_all_cases": "cell-based or functional assay", "key": {"[1]": {"target": "FVIIa variant CB562 K199D (human) (UniProt P08709)"}, "[2]": {"target": "FVIIa variant CB568 R290A (human) (UniProt P08709)"}, "[3]": {"target": "FVIIa variant CB692 K197E/G237V/M298Q/K341Q (human) (UniProt P08709)"}, "[4]": {"target": "FVIIa variant CB581 D196R/R290D (human) (UniProt P08709)"}, "[5]": {"target": "FVIIa variant CB587 D196K/K197E/K199E (human) (UniProt P08709)"}, "[6]": {"target": "FVIIa variant CB593 V158D/E296V/M298Q (human) (UniProt P08709)"}, "[7]": {"target": "FVIIa variant CB606 G237T (human) (UniProt P08709)"}, "[8]": {"target": "FVIIa variant CB688 K197E/K199E (human) (UniProt P08709)"}, "[9]": {"target": "FVIIa variant CB563 K199E (human) (UniProt P08709)"}, "[10]": {"target": "FVIIa variant CB701 R290V (human) (UniProt P08709)"}, "[11]": {"target": "FVIIa variant CB733 K341N (human) (UniProt P08709)"}, "[12]": {"target": "FVIIa variant CB689 K197E/G237V (human) (UniProt P08709)"}, "[13]": {"target": "FVIIa variant CB557 K197D (human) (UniProt P08709)"}, "[14]": {"target": "FVIIa variant CB612 D196F/K197L (human) (UniProt P08709)"}, "[15]": {"target": "FVIIa variant CB671 K197E/G237V/K341Q (human) (UniProt P08709)"}, "[16]": {"target": "FVIIa variant CB567 R290E (human) (UniProt P08709)"}, "[17]": {"target": "FVIIa variant CB614 D196W/K197L (human) (UniProt P08709)"}, "[18]": {"target": "FVIIa variant CB700 R290M (human) (UniProt P08709)"}, "[19]": {"target": "FVIIa variant CB566 R290D (human) (UniProt P08709)"}, "[20]": {"target": "FVIIa variant CB595 K197I (human) (UniProt P08709)"}, "[21]": {"target": "FVIIa variant CB609 K341Q (human) (UniProt P08709)"}, "[22]": {"target": "FVIIa variant CB734 K341M (human) (UniProt P08709)"}, "[23]": {"target": "FVIIa variant CB600 D196F (human) (UniProt P08709)"}, "[24]": {"target": "FVIIa variant CB604 D196I (human) (UniProt P08709)"}, "[25]": {"target": "FVIIa variant CB670 G237V/K341Q (human) (UniProt P08709)"}, "[26]": {"target": "FVIIa variant CB637 K197E/K341Q (human) (UniProt P08709)"}, "[27]": {"target": "FVIIa variant CB608 G237V (human) (UniProt P08709)"}, "[28]": {"target": "FVIIa variant CB603 D196L (human) (UniProt P08709)"}, "[29]": {"target": "FVIIa variant CB580 D196K/R290E (human) (UniProt P08709)"}, "[30]": {"target": "FVIIa variant CB558 K197E (human) (UniProt P08709)"}, "[31]": {"target": "FVIIa variant CB561 K197Y (human) (UniProt P08709)"}, "[32]": {"target": "FVIIa variant CB599 K197M (human) (UniProt P08709)"}, "[33]": {"target": "FVIIa variant CB598 K197W (human) (UniProt P08709)"}, "[34]": {"target": "FVIIa variant CB698 R290Q (human) (UniProt P08709)"}, "[35]": {"target": "FVIIa variant CB638 K197L/K341Q (human) (UniProt P08709)"}, "[36]": {"target": "FVIIa variant CB555 D196R (human) (UniProt P08709)"}, "[37]": {"target": "FVIIa variant CB617 D196V/K197E (human) (UniProt P08709)"}, "[38]": {"target": "FVIIa variant CB735 K341D (human) (UniProt P08709)"}, "[39]": {"target": "FVIIa variant CB596 K197V (human) (UniProt P08709)"}}}
{"substance": "Human Recombinant TFPI (R&D Systems) (from UniProt P10646 29-282)", "values": [{"measurement": "IC50 of TFPI inhibition of FVIIa/TF", "setting": "[1]", "value": 63, "unit": "nM"}, {"measurement": "TFPI fold resistance (fold vs wild-type FVIIa)", "setting": "[1]", "value": 0.9}, {"measurement": "pIC50 of TFPI inhibition of FVIIa/TF", "setting": "[1]", "value": 7.2}, {"measurement": "IC50 of TFPI inhibition of FVIIa/TF", "setting": "[2]", "value": 200, "unit": "nM"}, {"measurement": "TFPI fold resistance (fold vs wild-type FVIIa)", "setting": "[2]", "value": 2.8}, {"measurement": "pIC50 of TFPI inhibition of FVIIa/TF", "setting": "[2]", "value": 6.7}, {"measurement": "TFPI fold resistance (fold vs wild-type FVIIa)", "setting": "[3]", "value": 15.2}, {"measurement": "IC50 of TFPI inhibition of FVIIa/TF", "setting": "[4]", "value": 32, "unit": "nM"}, {"measurement": "TFPI fold resistance (fold vs wild-type FVIIa)", "setting": "[4]", "value": 0.4}, {"measurement": "pIC50 of TFPI inhibition of FVIIa/TF", "setting": "[4]", "value": 7.5}, {"measurement": "IC50 of TFPI inhibition of FVIIa/TF", "setting": "[5]", "value": 20, "unit": "nM"}, {"measurement": "TFPI fold resistance (fold vs wild-type FVIIa)", "setting": "[5]", "value": 0.3}, {"measurement": "pIC50 of TFPI inhibition of FVIIa/TF", "setting": "[5]", "value": 7.7}, {"measurement": "IC50 of TFPI inhibition of FVIIa/TF", "setting": "[6]", "value": 41, "unit": "nM"}, {"measurement": "TFPI fold resistance (fold vs wild-type FVIIa)", "setting": "[6]", "value": 0.8}, {"measurement": "pIC50 of TFPI inhibition of FVIIa/TF", "setting": "[6]", "value": 7.4}, {"measurement": "TFPI fold resistance (fold vs wild-type FVIIa)", "setting": "[7]", "value": 0.3}, {"measurement": "TFPI fold resistance (fold vs wild-type FVIIa)", "setting": "[8]", "value": 2.1}, {"measurement": "IC50 of TFPI inhibition of FVIIa/TF", "setting": "[9]", "value": 33, "unit": "nM"}, {"measurement": "TFPI fold resistance (fold vs wild-type FVIIa)", "setting": "[9]", "value": 1.3}, {"measurement": "pIC50 of TFPI inhibition of FVIIa/TF", "setting": "[9]", "value": 7.5}, {"measurement": "TFPI fold resistance (fold vs wild-type FVIIa)", "setting": "[10]", "value": 2.5}, {"measurement": "TFPI fold resistance (fold vs wild-type FVIIa)", "setting": "[11]", "value": 10.7}, {"measurement": "TFPI fold resistance (fold vs wild-type FVIIa)", "setting": "[12]", "value": 1.7}, {"measurement": "IC50 of TFPI inhibition of FVIIa/TF", "setting": "[13]", "value": 220, "unit": "nM"}, {"measurement": "TFPI fold resistance (fold vs wild-type FVIIa)", "setting": "[13]", "value": 3}, {"measurement": "pIC50 of TFPI inhibition of FVIIa/TF", "setting": "[13]", "value": 6.7}, {"measurement": "TFPI fold resistance (fold vs wild-type FVIIa)", "setting": "[14]", "value": "< 0.3"}, {"measurement": "TFPI fold resistance (fold vs wild-type FVIIa)", "setting": "[15]", "value": 18.9}, {"measurement": "IC50 of TFPI inhibition of FVIIa/TF", "setting": "[16]", "value": 440, "unit": "nM"}, {"measurement": "TFPI fold resistance (fold vs wild-type FVIIa)", "setting": "[16]", "value": 6.1}, {"measurement": "pIC50 of TFPI inhibition of FVIIa/TF", "setting": "[16]", "value": 6.4}, {"measurement": "TFPI fold resistance (fold vs wild-type FVIIa)", "setting": "[17]", "value": "< 0.3"}, {"measurement": "TFPI fold resistance (fold vs wild-type FVIIa)", "setting": "[18]", "value": 1}, {"measurement": "IC50 of TFPI inhibition of FVIIa/TF", "setting": "[19]", "value": 240, "unit": "nM"}, {"measurement": "TFPI fold resistance (fold vs wild-type FVIIa)", "setting": "[19]", "value": 3.3}, {"measurement": "pIC50 of TFPI inhibition of FVIIa/TF", "setting": "[19]", "value": 6.6}, {"measurement": "TFPI fold resistance (fold vs wild-type FVIIa)", "setting": "[20]", "value": 0.8}, {"measurement": "TFPI fold resistance (fold vs wild-type FVIIa)", "setting": "[21]", "value": 12.2}, {"measurement": "TFPI fold resistance (fold vs wild-type FVIIa)", "setting": "[22]", "value": 4.4}, {"measurement": "TFPI fold resistance (fold vs wild-type FVIIa)", "setting": "[23]", "value": "< 0.3"}, {"measurement": "TFPI fold resistance (fold vs wild-type FVIIa)", "setting": "[24]", "value": "< 0.3"}, {"measurement": "TFPI fold resistance (fold vs wild-type FVIIa)", "setting": "[25]", "value": 14.1}, {"measurement": "TFPI fold resistance (fold vs wild-type FVIIa)", "setting": "[26]", "value": 80.7}, {"measurement": "TFPI fold resistance (fold vs wild-type FVIIa)", "setting": "[27]", "value": 0.8}, {"measurement": "TFPI fold resistance (fold vs wild-type FVIIa)", "setting": "[28]", "value": "< 0.3"}, {"measurement": "IC50 of TFPI inhibition of FVIIa/TF", "setting": "[29]", "value": 52, "unit": "nM"}, {"measurement": "TFPI fold resistance (fold vs wild-type FVIIa)", "setting": "[29]", "value": 0.7}, {"measurement": "pIC50 of TFPI inhibition of FVIIa/TF", "setting": "[29]", "value": 7.3}, {"measurement": "IC50 of TFPI inhibition of FVIIa/TF", "setting": "[30]", "value": 310, "unit": "nM"}, {"measurement": "TFPI fold resistance (fold vs wild-type FVIIa)", "setting": "[30]", "value": 1.3}, {"measurement": "pIC50 of TFPI inhibition of FVIIa/TF", "setting": "[30]", "value": 6.5}, {"measurement": "IC50 of TFPI inhibition of FVIIa/TF", "setting": "[31]", "value": 110, "unit": "nM"}, {"measurement": "TFPI fold resistance (fold vs wild-type FVIIa)", "setting": "[31]", "value": 1.5}, {"measurement": "pIC50 of TFPI inhibition of FVIIa/TF", "setting": "[31]", "value": 7}, {"measurement": "TFPI fold resistance (fold vs wild-type FVIIa)", "setting": "[32]", "value": 0.3}, {"measurement": "TFPI fold resistance (fold vs wild-type FVIIa)", "setting": "[33]", "value": "< 0.3"}, {"measurement": "TFPI fold resistance (fold vs wild-type FVIIa)", "setting": "[34]", "value": 1.2}, {"measurement": "TFPI fold resistance (fold vs wild-type FVIIa)", "setting": "[35]", "value": 39}, {"measurement": "IC50 of TFPI inhibition of FVIIa/TF", "setting": "[36]", "value": 37, "unit": "nM"}, {"measurement": "TFPI fold resistance (fold vs wild-type FVIIa)", "setting": "[36]", "value": 0.5}, {"measurement": "pIC50 of TFPI inhibition of FVIIa/TF", "setting": "[36]", "value": 7.4}, {"measurement": "TFPI fold resistance (fold vs wild-type FVIIa)", "setting": "[37]", "value": "< 0.3"}, {"measurement": "TFPI fold resistance (fold vs wild-type FVIIa)", "setting": "[38]", "value": 148}, {"measurement": "TFPI fold resistance (fold vs wild-type FVIIa)", "setting": "[39]", "value": 0.6}]}
